Measured values: patent US20100278838A1, “EPHA2 MONOCLONAL ANTIBODIES AND METHODS OF USE THEREOF” (MEDIMMUNE, LLC, priority 2002, published 2010)
Entries after “also recorded” stand apart in the source; their conditions may differ.

Tests used:
EphA2 [1] = assay: EphA2 tyrosine phosphorylation in MDA-MB-231 cells (immunoprecipitation, phosphotyrosine western blot); type: cell-based; conditions: MDA-MB-231 monolayers, single dose 5 μg/ml, 37° C.
Method: FIGS. 2A-2D: EphA2 antibodies promote EphA2 tyrosine phosphorylation in MDA-MB-231 cells. Monolayers of MDA-MB-231 cells were incubated in the presence of a single dose of 5 μg/ml (A, C) Eph099B-208.261 or (B, D) EA2 for the indicated time at 37° C. Cell lysates were then immunoprecipitated with an EphA2-specific antibody, resolved by SDS-PAGE and subjected to western blot analysis with a phosphotyrosine-specific antibody (A, B). The membranes were stripped and re-probed with the EphA2-specific antibody used in the immunoprecipitation as a loading control (C, D).
(§1) Monolayers of MDA-MB-231 cells were incubated in the presence of a single dose of 5 μg/ml Eph099B-233.152 at 37° C. Cell lysates were then immunoprecipitated with D7 (an EphA2-specific antibody), resolved by SDS-PAGE and subjected to western blot analysis with (A) a phosphotyrosine-specific antibody or (B) an EphA2-specific antibody.
EphA2 antibodies promoted tyrosine phosphorylation and degradation of EphA2 in MDA-MB-231 cells. Monolayers of cells were incubated in the presence of EphA2 agonistic antibodies or control at 37° C. Cell lysates were then immunoprecipitated with an EphA2-specific antibody (D7, purchased from Upstate Biologicals, Inc., Lake Placid, N.Y. and deposited with the American Type […] Collection on Dec. 8, 2000, and assigned ATCC number PTA 2755), resolved by SDS-PAGE and subjected to western blot analysis with a phosphotyrosine-specific antibody (PY20 or 4G10, purchased from Upstate Biologicals, Inc., Lake Placid, N.Y.). […] Some membranes were stripped and re-probed with the EphA2-specific antibody used in the immunoprecipitation (D7) as a loading control (FIGS. 2C-2D).
Western blot analyses and immunoprecipitations were performed as described previously (Zantek et al., 1999, Cell Growth Diff. 10:629-38, which is incorporated by reference in its entirety). […] Antibody binding was detected by enhanced chemiluminescence (Pierce, Rockford, Ill.) and autoradiography (Kodak X-OMAT; Rochester, N.Y.).

EphA2 [2] = assay: EphA2 degradation / protein level in MDA-MB-231 cells (western blot); type: cell-based; conditions: MDA-MB-231 monolayers, single dose 5 μg/ml, 37° C.
Method: Monolayers of MDA-MB-231 cells were incubated in the presence of a single dose of 5 μg/ml (A, C) Eph099B-208.261 or (B, D) EA2 for the indicated time at 37° C. Cell lysates were then resolved by SDS-PAGE and subjected to western blot analysis with an EphA2-specific antibody (A, B). The membranes were stripped and re-probed with a β-catenin-specific antibody as a loading control (C, D).
as §1
Monolayers of MDA-MB-231 cells were incubated in the presence of EphA2 agonistic antibodies at 37° C. Cell lysates were then resolved by SDS-PAGE and subjected to western blot analysis with an EphA2-specific antibody (D7). […] Some membranes were stripped and re-probed with a β-catenin-specific antibody as a loading control (FIGS. 3C-3D). […] Decreased EphA2 expression is due, in part, to deceased mRNA expression levels in response to EphA2 protein degradation caused by agonistic antibody binding (data not shown).
Western blot analyses and immunoprecipitations were performed as described previously (Zantek et al., 1999, Cell Growth Diff. 10:629-38, which is incorporated by reference in its entirety). Briefly, detergent extracts of cell monolayers were extracted in Tris-buffered saline containing 1% Triton X-100 (Sigma, St. Louis, Mo.). After measuring protein concentrations (BioRad, Hercules, Calif.), 1.5 mg of cell lysate was immunoprecipitated, resolved by SDS-PAGE and transferred to nitrocellulose (PROTRAN™, Schleicher and Schuell, Keene, N.H.). Antibody binding was detected by enhanced chemiluminescence (Pierce, Rockford, Ill.) and autoradiography (Kodak X-OMAT; Rochester, N.Y.).

Chain of EphA2 (P29317 24-976): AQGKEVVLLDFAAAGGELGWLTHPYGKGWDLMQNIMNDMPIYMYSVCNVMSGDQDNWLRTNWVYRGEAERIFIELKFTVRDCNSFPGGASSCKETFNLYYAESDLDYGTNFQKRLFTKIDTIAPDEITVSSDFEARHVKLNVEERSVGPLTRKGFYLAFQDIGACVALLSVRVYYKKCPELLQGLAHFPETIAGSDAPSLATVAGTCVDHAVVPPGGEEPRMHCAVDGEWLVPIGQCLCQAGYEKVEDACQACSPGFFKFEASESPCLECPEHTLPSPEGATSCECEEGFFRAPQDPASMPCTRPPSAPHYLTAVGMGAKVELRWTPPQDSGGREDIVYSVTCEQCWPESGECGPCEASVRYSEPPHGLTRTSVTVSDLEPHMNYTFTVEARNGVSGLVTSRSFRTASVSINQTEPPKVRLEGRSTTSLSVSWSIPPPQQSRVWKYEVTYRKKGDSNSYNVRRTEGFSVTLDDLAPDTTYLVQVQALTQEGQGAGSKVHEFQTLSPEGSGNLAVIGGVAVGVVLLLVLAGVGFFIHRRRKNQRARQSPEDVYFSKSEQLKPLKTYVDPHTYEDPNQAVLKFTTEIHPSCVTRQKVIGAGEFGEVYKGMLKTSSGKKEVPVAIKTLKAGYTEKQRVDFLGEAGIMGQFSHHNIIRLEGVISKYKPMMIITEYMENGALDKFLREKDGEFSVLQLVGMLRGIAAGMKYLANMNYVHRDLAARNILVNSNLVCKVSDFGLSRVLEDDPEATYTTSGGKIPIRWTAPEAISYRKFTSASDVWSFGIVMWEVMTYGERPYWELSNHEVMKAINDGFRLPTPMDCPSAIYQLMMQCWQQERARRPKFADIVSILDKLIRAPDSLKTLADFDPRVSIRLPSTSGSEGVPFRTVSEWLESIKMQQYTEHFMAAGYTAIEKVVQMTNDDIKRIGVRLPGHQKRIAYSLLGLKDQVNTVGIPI

B1: Eph099B-233.152: EphA2 monoclonal antibody; hybridoma ATCC PTA-5194; VL SEQ ID NO:17, VH SEQ ID NO:21 (antibody, listed as Homo sapiens, V domains shown)
VH: EVKLVESGGGLVQPGGSLSLSCAASGFTFTDYSMNWVRQPPGKALEWLGFIRNKANDYTTEYSASVKGRFTISRDNSQSILYLQMNALRAEDSATYYCVRYPRYHAMDSWGQGTSVTVSS
VL: DIVLTQSPATLSVTPGDSVNLSCRASQSISNNLHWYQQKSHESPRLLIKYVFQSISGIPSRFSGSGSGTDFTLSINSVETEDFGMYFCQQSNSWPLTFGAGTKLELK
With B1 the EphA2 tyrosine phosphorylation (EphA2 [1]) was “increased EphA2 phosphorylation; also recorded: promotes EphA2 tyrosine phosphorylation” and the EphA2 protein level (EphA2 [2]) was “decreased EphA2 protein level; also recorded: EphA2 degradation”.

B2: EA2: EphA2 agonistic monoclonal antibody; ATCC deposit no. PTA-4380; co-pending application Ser. No. 10/436,783; VL SEQ ID NO:33, VH SEQ ID NO:37 (antibody, listed as Homo Sapiens, V domains shown)
VH: DVKLVESGGGLVKPGGSLKLSCAASGFTFSSYTMSWVRQTPEKRLEWVATISSGGTYTYYPDSVKGRFTISRDNAKNTLYLQMSSLKSEDTAMYYCTREAIFTYWGQGTLVTVSA
VL: DIKMTQSPSSMYASLGERVTITCKASQDINNYLSWFQQKPGKSPKTLIYRANRLVDGVPSRFSGSGSGQDYSLTISSLEYEDMGIYYCLKYDEFPYTFGGGTKLEIK
B2 was tested, and the EphA2 tyrosine phosphorylation (EphA2 [1]) was “increased EphA2 phosphorylation” and the EphA2 protein level (EphA2 [2]) was “decreased EphA2 protein level”.

B3: Eph099B-208.261: EphA2 monoclonal antibody; hybridoma ATCC PTA-4573; VL SEQ ID NO:1, VH SEQ ID NO:5 (antibody, listed as Homo sapiens, V domains shown)
VH: QVQLQQPGAELVKPGASVKLSCKASGYTFTSYWMHWVKQRPGQGLEWIGMIHPNSGSTNYNEKFKSKATLTVDKSSSTAYMRLSSLTSEDSAVYYCARGGNMVGGGYWGQGTTLTVSS
VL: QIVLTQSPALMSASPGEKVTMTCSASSSVSYMYWYQQKPRSSPKPWIYLTTNLASGVPARFSGSGSGTSYSLTISSMEAEDAATYYCQQWSSNPFTFGSGTKLEIR
B3 was tested, and the EphA2 tyrosine phosphorylation (EphA2 [1]) was “increased EphA2 phosphorylation” and the EphA2 protein level (EphA2 [2]) was “decreased EphA2 protein level”.
